Common to all, as to conditions: both partners purified
For assay [1], the target named is T1, GAPC1-Flag (cytosolic glyceraldehyde-3-phosphate dehydrogenase 1) (Arabidopsis, UniProt P25858 1-338).
T1 construct: Cytosolic glyceraldehyde-3-phosphate dehydrogenase GAPC1 of Arabidopsis; CaMV-35S promoter; source: Arabidopsis overexpressing GAPC1-Flag, purified with an anti-Flag antibody and Protein A-agarose
As to the kind of experiment: co-IP; GAPC1-Flag or GAPC2-Flag purified from Arabidopsis mixed with purified NF-YC10-6xHis; IP with anti-Flag antibody and Protein A-agarose, overnight at 4 °C, buffer A (20 mM NaH2PO4 pH 8.0, 150 mM NaCl); blot with anti-6xHis antibody.

Assay [2] concerns the target T2, GAPC2-Flag (cytosolic glyceraldehyde-3-phosphate dehydrogenase 2) (Arabidopsis, UniProt Q9FX54 1-338).
T2 construct: Cytosolic glyceraldehyde-3-phosphate dehydrogenase GAPC2 of Arabidopsis; CaMV-35S promoter; source: Arabidopsis overexpressing GAPC2-Flag, purified with an anti-Flag antibody and Protein A-agarose
The assay is described as above.

Assay [3] concerns the target T3, GAPC2-6xHis (Arabidopsis, UniProt Q9FX54 1-338).
T3 construct: Cytosolic glyceraldehyde-3-phosphate dehydrogenase GAPC2 of Arabidopsis; source: purified
Kind of assay: co-IP; purified GAPC2-6xHis or GAPC2mut’-6xHis mixed with NF-YC10-6xHis-STREP; IP with anti-STREP antibody, blot with anti-6xHis antibody.

T1 sequence (P25858 whole entry): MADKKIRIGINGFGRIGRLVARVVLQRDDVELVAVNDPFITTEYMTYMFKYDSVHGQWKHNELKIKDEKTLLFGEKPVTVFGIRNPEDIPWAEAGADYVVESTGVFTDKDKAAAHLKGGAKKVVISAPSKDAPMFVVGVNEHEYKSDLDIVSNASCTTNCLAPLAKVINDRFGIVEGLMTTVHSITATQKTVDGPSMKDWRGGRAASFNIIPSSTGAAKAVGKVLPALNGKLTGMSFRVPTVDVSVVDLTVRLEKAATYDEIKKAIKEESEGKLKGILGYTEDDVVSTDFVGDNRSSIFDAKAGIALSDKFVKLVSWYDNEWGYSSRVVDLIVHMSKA
T3 sequence (Q9FX54 whole entry): as the sequence (P25858 whole entry) above, with N61H, I65V, E68D, A92G, Y98F, A227S, L274M counted along it
T2 sequence (Q9FX54 whole entry): as the sequence (P25858 whole entry) above, with N61H, I65V, E68D, A92G, Y98F, A227S, L274M counted along it

B1: NF-YC10-6xHis (natural protein, Arabidopsis, UniProt Q58CM8 1-195, looked up)
chain: MRRPKSSHVRMEPVAPRSHNTMPMLDQFRSNHPETSKIEGVSSLDTALKVFWNNQREQLGNFAGQTHLPLSRVRKILKSDPEVKKISCDVPALFSKACEYFILEVTLRAWMHTQSCTRETIRRCDIFQAVKNSGTYDFLIDRVPFGPHCVTHQGVQPPAEMILPDMNVPIDMDQIEEENMMEERSVGFDLNCDLQ
notes: Nuclear factor Y subunit C10, cloned from Arabidopsis; also called recombinant NF-YC10
In the case of B1, the binding result in assay [1] and in assay [2] was “binds” each time.

B2: NF-YC10-6xHis-STREP (natural protein, Arabidopsis, UniProt Q58CM8 1-195, looked up)
chain: B1 chain
notes: Nuclear factor Y subunit C10 of Arabidopsis
As for B2, the binding result in assay [3] was “binds”.

The values above are taken from publication PMC7351759, “Nuclear moonlighting of cytosolic glyceraldehyde-3-phosphate dehydrogenase regulates Arabidopsis response to heat stress” (Nature Communications, 2020).
